# Results as given in patent US20200079861A1 (AGENUS, published 2020).
# What was measured:
# [1] = molecular target: T1, human GITR G63A mutant (on 1624-5 cells) (human, UniProt Q9Y5U5 26-241); test: flow cytometry on 1624-5 cells, 2 µg/ml antibody, MFI ratio to polyclonal antibody, mutant versus wild type
# T1 chain: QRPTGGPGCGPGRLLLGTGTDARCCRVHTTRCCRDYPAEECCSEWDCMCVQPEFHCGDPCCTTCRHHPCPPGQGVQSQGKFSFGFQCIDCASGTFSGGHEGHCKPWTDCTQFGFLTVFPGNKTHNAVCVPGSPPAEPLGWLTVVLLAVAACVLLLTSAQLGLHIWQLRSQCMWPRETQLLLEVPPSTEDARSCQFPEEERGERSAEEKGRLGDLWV
# Protocol: (§1) An average MFI ratio (“AMFI ratio”) was calculated based on the individual MFI ratios for all the mutants. […] An individual MFI ratio that is between 30% and 60% of the AMFI ratio is represented by “+/−” in FIG. 10A. An individual MFI ratio that is below 30% of the AMFI ratio is represented by “−” in FIG. 10A.
# (§2) All the mean fluorescence intensity (MFI) values were calculated as the mean of two measurements.
# [2] = molecular target: T2, human GITR D60A mutant (on 1624-5 cells) (human, UniProt Q9Y5U5 26-241); test: as above
# T2 chain: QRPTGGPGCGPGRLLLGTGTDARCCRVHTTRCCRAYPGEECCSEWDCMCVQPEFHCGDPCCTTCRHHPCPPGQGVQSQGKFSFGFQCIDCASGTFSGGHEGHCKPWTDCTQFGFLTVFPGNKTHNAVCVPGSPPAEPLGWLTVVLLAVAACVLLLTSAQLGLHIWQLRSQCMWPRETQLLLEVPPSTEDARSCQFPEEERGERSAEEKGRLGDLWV
# Protocol: as §1, §2
# [3] = molecular target: T3, V1M cynomolgus GITR (on 1624-5 cells) (cynomolgus, UniProt Q9Y5U5 26-241 (human entry)); test: flow cytometry on 1624-5 cells
# T3 chain: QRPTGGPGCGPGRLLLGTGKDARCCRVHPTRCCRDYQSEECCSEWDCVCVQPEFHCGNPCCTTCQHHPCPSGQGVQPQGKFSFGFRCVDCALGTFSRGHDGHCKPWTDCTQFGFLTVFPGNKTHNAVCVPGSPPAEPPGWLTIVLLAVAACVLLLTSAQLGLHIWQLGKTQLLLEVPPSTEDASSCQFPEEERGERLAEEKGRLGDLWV
# Protocol: (§3) After washing, the cells were incubated with a secondary anti-IgG antibody if necessary for detection (APC conjugated; BD Cat no. 109-136-097) diluted in 100 μl FACS buffer (PBS+2% FCS) for 20 min at 4° C. The cells were then washed and acquired using a flow cytometer (BD Biosciences). The mean fluorescence intensity (MFI) value of the tested monoclonal antibody was divided by the MFI value of the polyclonal antibody, generating an MFI ratio (monoclonal antibody/polyclonal antibody) for individual GITR alanine mutants. An average MFI ratio (“AMFI ratio”) was calculated based on the individual MFI ratios for all the mutants. […] An individual MFI ratio that is between 30% and 60% of the AMFI ratio is represented by “+/−” in FIG. 10A. An individual MFI ratio that is below 30% of the AMFI ratio is represented by “−” in FIG. 10A.
# (§4) As further evidence for the binding characteristics of the anti-GITR antibodies, the binding of the antibodies to cynomolgus GITR was compared. The immature protein of cynomolgus GITR comprises the amino acid sequence of SEQ ID NO:44.
# [4] = molecular target: T4, V1M/Q62P/S63G cynomolgus GITR (on 1624-5 cells) (cynomolgus, UniProt Q9Y5U5 26-241 (human entry)); test: flow cytometry on 1624-5 cells, 2 µg/ml antibody
# T4 construct: V1M lies in the signal peptide; also called mutant cynomolgus GITR V1M/Q62P/S63G
# T4 chain: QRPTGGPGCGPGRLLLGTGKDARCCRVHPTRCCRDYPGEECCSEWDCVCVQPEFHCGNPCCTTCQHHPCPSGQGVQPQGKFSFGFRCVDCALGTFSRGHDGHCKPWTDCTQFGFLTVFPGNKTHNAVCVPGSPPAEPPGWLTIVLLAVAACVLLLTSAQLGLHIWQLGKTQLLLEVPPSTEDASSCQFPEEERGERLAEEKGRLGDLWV
# Protocol: as §3, §4
# [5] = molecular target: T5, GITR antigen (R&D systems, disulfide-linked homodimer; 689-GR) (human, UniProt Q9Y5U5 26-161, R-PE labeled in the suspension array assay; unlabeled and amine-coupled to the chip in SPR); test: SPR (BIAcore), GITR antigen immobilized on the chip, antibody at 300 nM
# T5 construct: also called R-PE labeled GITR antigen
# T5 sequence (looked up): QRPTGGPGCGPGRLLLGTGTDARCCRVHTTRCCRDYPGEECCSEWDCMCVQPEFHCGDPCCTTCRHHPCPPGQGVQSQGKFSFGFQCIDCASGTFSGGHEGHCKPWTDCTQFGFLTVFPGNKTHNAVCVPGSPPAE
# Protocol: Flow cell 2 contained GITR antigen in low density (667 RU), medium density was assessed in flow cell 3 (1595 RU) and in flow cell 4, high density was achieved (4371 RU). In flow cell 1, ovalbumin (1289 RU, Pierce ThermoFisher 77120) was immobilized for reference. Immobilization was performed according to a standard protocol from the manufacturer (GE Healthcare) for amine coupling (activation of surface with 0.4 M EDC and 0.1 M NHS, GE Healthcare Amine coupling kit, BR-1000-50). […] Afterwards anti-GITR antibodies were run through the different surfaces at a concentration of 300 nM (45 μg/ml) for 240 seconds at 5 μl/min. […] A dissociation time of 60 seconds was included before adding the competing antibody (300 nM, 5 μl/min).
# human OX40 (on cells) = molecular target: T6, human OX40 (on cells) (human, UniProt P43489 29-277); test: flow cytometry on Jurkat cells expressing OX40 only
# T6 construct: also called huOX40; TNFRSF4
# T6 sequence: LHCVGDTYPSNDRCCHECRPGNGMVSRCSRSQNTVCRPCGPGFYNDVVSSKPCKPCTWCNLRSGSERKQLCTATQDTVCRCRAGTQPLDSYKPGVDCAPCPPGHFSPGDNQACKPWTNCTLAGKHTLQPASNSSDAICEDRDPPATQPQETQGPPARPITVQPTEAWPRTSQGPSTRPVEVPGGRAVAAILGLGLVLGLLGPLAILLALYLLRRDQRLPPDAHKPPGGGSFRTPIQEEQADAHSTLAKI
# Protocol: (§5) Hut102 cells (human T cell lymphoma, ATCC) were incubated for 72 hours in RPMI media, supplemented with 1 μg/ml phytohaemagglutinin (PHA) and 10% heat-inactivated FBS, at 37° C. and 5% CO₂ to induce GITR and OX40 expression. Cells ectopically expressing GITR or OX40 were generated by transduction of lentiviral vectors (EF1a promoter) into Jurkat cells. Stable clones were generated via single-cell sorting (FACS ARIA Fusion). Expression was verified by flow cytometry. For binding analysis, stable Jurkat cells or activated Hut102 cells were incubated with test antibodies (12-point dose titration, 0.01-10,000 ng/ml) diluted in FACS buffer (PBS, 2 mM EDTA, 0.5% BSA, pH 7.2) for 30 minutes at 4° C. Samples were washed two times in FACS buffer and then incubated with APC-conjugated mouse anti-human kappa detection antibody (Life Technologies, HP6062) for 30 minutes at 4° C. Samples were then washed two times and analyzed using the LSRFortessa flow cytometer (BD Biosciences). FACS plots were analyzed using a combination of FACS DIVA and WEHI Weasel software. Data were plotted with Graphpad Prism software.
# [6] = molecular target: T5, GITR antigen (R&D systems, …); test: Luminex suspension array, m6C8 captured on beads, R-PE labeled GITR antigen; data not shown
# Protocol: (§6) The bead mixture and the antigen/antibody mixture were mixed 1:1 (20 μl from each) and incubated for one additional hour under shaking conditions (20° C., 650 rpm). Directly before the measurement, 40 μl of assay buffer was added to each well and analysis was performed using a Luminex® 200 system (Millipore) and a readout of 100 beads in 48 μl sample volume. Binding was determined using the MFI values of the non-competed control (100% binding, only assay buffer as competing compound).
# human GITR (on cells) = molecular target: T7, human GITR (on cells) (human, UniProt Q9Y5U5 26-241); test: flow cytometry on Jurkat cells expressing GITR only
# T7 construct: Swiss-Prot Q9Y5U5-1 is printed; also called huGITR; wild type human GITR
# T7 sequence: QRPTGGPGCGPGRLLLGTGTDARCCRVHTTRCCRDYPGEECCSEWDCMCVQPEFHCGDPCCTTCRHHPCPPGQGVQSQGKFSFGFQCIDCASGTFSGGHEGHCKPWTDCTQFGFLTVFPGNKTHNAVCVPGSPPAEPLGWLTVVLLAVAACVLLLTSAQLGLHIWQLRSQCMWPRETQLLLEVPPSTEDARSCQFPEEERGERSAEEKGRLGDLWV
# Protocol: as §5
# [7] = molecular target: T5, GITR antigen (R&D systems, …); test: Luminex suspension array, competitor at 20 µg/ml pre-incubated with R-PE labeled GITR antigen; captured antibody 231-32-15
# Protocol: as §6
Binder,percentage of reduction in binding relative to wild type GITR [1],percentage of reduction in binding relative to wild type GITR [2],binding result [3],binding result [4],binding result [7],further results
"pab2049 (antibody, human IgG1, V domains shown, also called bivalent monospecific antibody pab2049; pab2049w (same chains without light chain T109S)) VH: EVQLVESGGGLVQPGGSLKLSCAASGFTFSGSAMHWVRQASGKGLEWVGRIRSKANSYATAYAASVKGRFTISRDDSKNTAYLQMNSLKTEDTAVYYCTSGIYDSSGYDYWGQGTLVTVSS VL: not shown",–,–,–,–,–,binding result (human OX40 (on cells)): binds
"m6C8 (antibody, V domains shown, Generated from the variable regions of antibody 6C8 of WO 2006/105021; also called murine antibody 6C8) VH: QVTLKESGPGILKPSQTLSLTCSFSGFSLSTSGMGVGWIRQPSGKGLEWLAHIWWDDDKYYNPSLKSQLTISKDTSRNQVFLKITSVDTADAATYYCARTRRYFPFAYWGQGTLVTVSS VL: DIVMTQSQKFMSTSVGDRVSVTCKASQNVGTNVAWYQQKPGQSPKALIYSASYRYSGVPDRFTGSGSGTDFTLTINNVHSEDLAEYFCQQYNTDPLTFGAGTKLEIK",–,10%,–,–,–,binding result [6]: binds; percentage of increase in binding relative to wild type GITR [1]: 62%

# The next lines start with results.
percentage of reduction in binding relative to wild type GITR [1],percentage of reduction in binding relative to wild type GITR [2],binding result [3],binding result [4],binding result [7],Binder,further results
37%,82%,no binding (tested: 2 µg/ml),binds,–,"chimeric parental 231-32-15 antibody (antibody, V domains shown, Chimeric antibody) VH: QVQLLQSGTELVRPGVSVKISCKGSGYTFTDYAMYWVKQSHAKSLEWIGVIRTYSGDVTYNQKFKDKATMTVDKSSSIAYMELARLSSEDSAIYYCAKSGTVRGFAYWGQGTLVTVSS VL: DIVMTQSPSSLTVTAGEKVIMSCKSSQSLLNSGNQKNYLTWYQQKPGQPPKLLIYWASTRESGVPDRFTGSGSGTDFTLTISSVQAEDLAVYHCQNDYSYPYTFGGGTKLEIK",binding result [5]: binds
59%,–,no binding (tested: 2 µg/ml),binds,binds,"pab1876 (antibody, human IgG1, V domains shown, also called bivalent monospecific antibody pab1876; pab1876w (same chains without light chain T109S)) VH: QVQLVQSGAEVKKPGASVKVSCKGSGYTFTDYAMYWVRQAPGQGLEWIGVIRTYSGDVTYNQKFKDRATMTVDKSISTAYMELSRLRSDDTAVYYCAKSGTVRGFAYWGQGTLVTVSS VL: DIVMTQSPDSLAVSLGERATINCKSSQSLLNSGNQKNYLTWYQQKPGQPPKLLIYWASTRESGVPDRFSGSGSGTDFTLTISSLQAEDVAVYHCQNDYSYPYTFGQGTKLEIKR",binding result (human GITR (on cells)): binds
–,–,–,–,binds,"pab1875 (antibody, V domains shown) VH: QVQLVQSGAEVKKPGASVKVSCKGSGYTFTDYAMYWVRQAPGQGLEWIGVIRTYSGDVTYNQKFKDRATMTVDKSISTAYMELSRLRSDDTAVYYCAKSGTVRGFAYWGQGTLVTVSS VL: DIVMTQSPPTLSLSPGERVTLSCKSSQSLLNSGNQKNYLTWYQQKPGQAPRLLIYWASTRESGIPARFSGSGSGTDFTLTISSLQPEDFAVYHCQNDYSYPYTFGQGTKLEIK",–
